The values below come from patent EP4782541A1 (Nanjing Probio Biotech Co., Ltd., dated 2026).

In test [1] the target is human ROR1 (on CHO-K1/ROR1 cells and ROR1 tumour cell lines) (human) (UniProt Q01973). Briefly: flow cytometry on A375 cells (human ROR1 tumour cell line).
Test [2] shares this target. Briefly: flow cytometry on MDA-MB-231 cells (human ROR1 tumour cell line).
The target is the same in test [3]. Briefly: flow cytometry on PA-1 cells (human ROR1 tumour cell line).
The target is the same in test [4]. As to the kind of experiment: cell-based or functional assay.
Test [5] has the same target. As to the kind of experiment: flow cytometry on A549 cells (human ROR1 tumour cell line).
For test [6] the target is unchanged. Briefly: flow cytometry on CHO-K1/ROR1 cells overexpressing human ROR1.
Test [7] has as its target T1, human CD3 (on Jurkat cells) (human, UniProt P07766 23-207; P09693 23-182; P04234 22-171).
T1 construct: whole, on cells
Briefly: flow cytometry on Jurkat cells expressing human CD3.

Test [8] concerns the target human ROR1 (on CHO-K1/ROR1 cells and ROR1 tumour cell lines) (human) (UniProt Q01973). As to the kind of experiment: flow cytometry on PSN-1 cells (human ROR1 tumour cell line).
Test [9] shares this target. As to the kind of experiment: flow cytometry on Jeko-1 cells (human ROR1 tumour cell line).
The target of test [10] is T2, human ROR1 protein (human, UniProt Q01973 30-403, limits assumed).
T2 construct: Recombinant antigen of the SPR assay; also called ROR1 (SPR ligand)
T2 sequence (Q01973 30-403 limits assumed): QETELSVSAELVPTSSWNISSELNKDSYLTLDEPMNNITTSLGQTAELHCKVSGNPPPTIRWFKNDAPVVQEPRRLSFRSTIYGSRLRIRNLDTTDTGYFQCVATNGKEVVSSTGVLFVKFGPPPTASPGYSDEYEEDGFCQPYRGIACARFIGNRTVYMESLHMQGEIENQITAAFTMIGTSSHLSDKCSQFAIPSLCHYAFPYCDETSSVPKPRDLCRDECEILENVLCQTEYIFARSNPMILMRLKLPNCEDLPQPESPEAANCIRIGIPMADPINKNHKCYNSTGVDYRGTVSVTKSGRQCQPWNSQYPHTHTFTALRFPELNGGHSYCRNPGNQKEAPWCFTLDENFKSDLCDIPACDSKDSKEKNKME
As to the kind of experiment: SPR (Biacore 8K); human ROR1 amine-coupled at 0.50 ug/mL as ligand, antibody as analyte.

The target of test [11] is T2, human ROR1 protein. As to the kind of experiment: SPR (Biacore 8K); human ROR1 amine-coupled at 0.10 ug/mL as ligand, antibody as analyte.
Test [12] concerns the target T2, human ROR1 protein. As to the kind of experiment: SPR (Biacore 8K); human ROR1 amine-coupled at 62.50 ug/mL as ligand, antibody as analyte.
The target of test [13] is T3, human ROR1 (on CHO-K1/ROR1 cells and ROR1 tumour cell lines) (human, UniProt Q01973 30-937).
T3 construct: whole, on cells; also called receptor tyrosine kinase-like orphan receptor 1
T3 sequence (Q01973 30-937): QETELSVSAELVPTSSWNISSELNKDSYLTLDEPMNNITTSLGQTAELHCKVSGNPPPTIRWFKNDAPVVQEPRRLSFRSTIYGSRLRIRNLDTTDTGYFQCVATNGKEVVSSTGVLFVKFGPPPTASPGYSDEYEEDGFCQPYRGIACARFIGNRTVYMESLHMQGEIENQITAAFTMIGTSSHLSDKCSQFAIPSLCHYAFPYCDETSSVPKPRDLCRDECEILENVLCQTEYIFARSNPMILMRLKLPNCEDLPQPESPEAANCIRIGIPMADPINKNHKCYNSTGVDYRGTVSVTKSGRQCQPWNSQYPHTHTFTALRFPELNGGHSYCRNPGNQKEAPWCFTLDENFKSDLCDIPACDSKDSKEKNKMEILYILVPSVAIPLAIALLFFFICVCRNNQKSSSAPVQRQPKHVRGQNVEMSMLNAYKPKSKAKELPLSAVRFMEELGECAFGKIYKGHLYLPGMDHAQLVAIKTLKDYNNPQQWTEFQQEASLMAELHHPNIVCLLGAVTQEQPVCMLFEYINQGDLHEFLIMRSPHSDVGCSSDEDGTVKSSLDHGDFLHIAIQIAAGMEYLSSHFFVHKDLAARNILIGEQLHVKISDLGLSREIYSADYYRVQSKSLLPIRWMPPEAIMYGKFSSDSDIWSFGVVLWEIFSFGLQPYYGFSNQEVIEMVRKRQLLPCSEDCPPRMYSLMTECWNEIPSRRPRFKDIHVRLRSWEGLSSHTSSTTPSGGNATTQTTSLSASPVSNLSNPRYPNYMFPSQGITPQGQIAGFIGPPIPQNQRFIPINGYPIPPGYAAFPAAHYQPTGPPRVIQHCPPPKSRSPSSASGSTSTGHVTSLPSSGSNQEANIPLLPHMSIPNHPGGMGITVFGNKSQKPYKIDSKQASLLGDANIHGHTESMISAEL
Briefly: flow cytometry on CHO-K1/ROR1 cells overexpressing human ROR1.

Test [14] deals with T2, human ROR1 protein. As to the kind of experiment: SPR (Biacore 8K); human ROR1 amine-coupled at 2.50 ug/mL as ligand, antibody as analyte.
Test [15] addresses T2, human ROR1 protein. Briefly: SPR (Biacore 8K); human ROR1 amine-coupled at 12.50 ug/mL as ligand, antibody as analyte.
The target of test [16] is T2, human ROR1 protein. Briefly: SPR (Biacore 8K); human ROR1 amine-coupled at 0.05 ug/mL as ligand, antibody as analyte.

T1 sequence (P07766 23-207, chain 1 of 3): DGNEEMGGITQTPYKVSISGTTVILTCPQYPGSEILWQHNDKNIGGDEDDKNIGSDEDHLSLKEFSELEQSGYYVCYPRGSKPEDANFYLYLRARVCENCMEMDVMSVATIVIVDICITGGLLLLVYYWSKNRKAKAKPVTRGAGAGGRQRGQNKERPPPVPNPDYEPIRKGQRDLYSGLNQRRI
T1 sequence (P09693 23-182, chain 2 of 3): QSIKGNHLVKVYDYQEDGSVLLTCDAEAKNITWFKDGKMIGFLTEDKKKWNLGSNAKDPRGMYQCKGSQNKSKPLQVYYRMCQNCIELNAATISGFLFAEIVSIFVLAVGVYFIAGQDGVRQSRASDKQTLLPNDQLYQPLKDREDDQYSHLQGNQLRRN
T1 sequence (P04234 22-171, chain 3 of 3): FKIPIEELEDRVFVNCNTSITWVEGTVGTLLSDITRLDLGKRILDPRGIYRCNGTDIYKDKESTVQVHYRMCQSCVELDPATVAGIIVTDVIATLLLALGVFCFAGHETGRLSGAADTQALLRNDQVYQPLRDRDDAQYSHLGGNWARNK
Chain of human ROR1 (on CHO-K1/ROR1 cells and ROR1 tumour cell lines) (human) (Q01973 30-937): as the sequence (Q01973 30-937) above

On to EMB-07 (bispecific antibody), for which the half-maximal effective concentration (EC50) in test [1] is 2.5 nM; in test [2] it was 3.84 nM; in [3], 5.06 nM; in [5], 4.01 nM; in [6] it was 2.39 nM; in test [7], 4.45 nM. For the same molecule, the figures for the EC50 in [8] and in test [9] were 6.09 nM and 7.15 nM, respectively. The EC50 of T cell activation based on reporter gene (luciferase), target cells A375 in test [4] was found to be 0.428 nM. The EC50 of T cell activation based on reporter gene (luciferase), target cells Jeko-1 in [4] was 0.155 nM. The molecule also returned an EC50 of T cell activation based on reporter gene (luciferase), target cells MDA-MB-231 in test [4] of 0.0644 nM.

B1: BsAb-9 (bispecific antibody, human IgG1, lambda)
chain: EVQLVESGGGLVQPGGSLRLSCAASGFISRFYAMGWYRQAPGKQRELVARISSMGWTYYADSVKGRFTISIDNSKNTLYLQMNSLRAEDTAVYYCNARNLWGQGTLVTVSSDKTHTCPPCPAPESTRGPSVFLFPPKPKDTLMISRTPEVTCVVVDVSHEDPEVKFNWYVDGVEVHNAKTKPREEQYNSTYRVVSVLTVLHQDWLNGKEYKCKVSNKALPAPIEKTISKAKGQPREPQVCTLPPSRDELTKNQVSLSCAVKGFYPSDIAVEWESNGQPENNYKTTPPVLDSDGSFFLVSKLTVDKSRWQQGNVFSCSVMHEALHNHYTQKSLSLSPGK
heavy: EVQLVESGGGLVQPGGSLRLSCAASGFISRFYAMGWYRQAPGKQRELVARISSMGWTYYADSVKGRFTISIDNSKNTLYLQMNSLRAEDTAVYYCNARNLWGQGTLVTVSSGGGGSGGGGSGGGGSEVQLVESGGGLVQPGRSLRLSCAASGFTFNTYAMNWVRQAPGKGLEWVARIRSKYNNYATYYADSVKDRFTISRDDSKSIAYLQMNSLKTEDTAVYYCVRHGNFGNSYVSWFAYWGQGTLVTVSSASTKGPSVFPLAPSSKSTSGGTAALGCLVKDYFPEPVTVSWNSGALTSGVHTFPAVLQSSGLYSLSSVVTVPSSSLGTQTYICNVNHKPSNTKVDKKVEPKSCDKTHTCPPCPAPESTRGPSVFLFPPKPKDTLMISRTPEVTCVVVDVSHEDPEVKFNWYVDGVEVHNAKTKPREEQYNSTYRVVSVLTVLHQDWLNGKEYKCKVSNKALPAPIEKTISKAKGQPREPQVYTLPPCRDELTKNQVSLWCLVKGFYPSDIAVEWESNGQPENNYKTTPPVLDSDGSFFLYSKLTVDKSRWQQGNVFSCSVMHEALHNHYTQKSLSLSPGK
light: QTVVTQEPSLTVSPGGTVTLTCRSSTGAVTTSNYANWVQQKPGQAPRGLIGGTNKRAPGVPARFSGSLLGGKAALTLSGVQPEDEAEYFCALWYSNLWVFGGGTKLTVLGQPKAAPSVTLFPPSSEELQANKATLVCLISDFYPGAVTVAWKADSSPVKAGVETTTPSKQSNNKYAASSYLSLTPEQWKSHRSYSCQVTHEGSTVEKTVAPTECS
notes: also called BsAb-09
Consider B1, for which the equilibrium dissociation constant (Kd) in test [10] came out at 0.0216 nM; in [11], 0.0497 nM; in [12], 0.00682 nM; in test [14], 0.0129 nM; in [15], 0.00664 nM; in [16] it was 0.0811 nM. Moreover, the koff in test [10] came out at 0.00083 s⁻¹; in test [11] it was 0.00113 s⁻¹; in [12], 0.000187 s⁻¹; in test [14], 0.000521 s⁻¹; in test [15] it was 0.000242 s⁻¹; in test [16], 0.00143 s⁻¹. Moreover, the on-rate constant (kon) in [10] is 3.85e+07 M⁻¹ s⁻¹; in test [11], 2.28e+07 M⁻¹ s⁻¹; in test [12], 2.73e+07 M⁻¹ s⁻¹; in test [14], 4.05e+07 M⁻¹ s⁻¹; in [15], 3.65e+07 M⁻¹ s⁻¹; in test [16], 1.76e+07 M⁻¹ s⁻¹. The concentration for a half-maximal effect (EC50) in [7] was 1.38 nM; in test [13], 0.0864 nM.

B2: BsAb-5 (bispecific antibody, human IgG1, lambda)
chain: EVQLVESGGGLVQPGGSLRLSCAASGFISRFYAMGWYRQAPGKQRELVARISSMGWTYYADSVKGRFTISIDNSKNTLYLQMNSLRAEDTAVYYCNARNLWGQGTLVTVSSGGGGSGGGGSGGGGSEVQLVESGGGLVQPGGSLRLSCAASGFISRFYAMGWYRQAPGKQRELVARISSMGWTYYADSVKGRFTISIDNSKNTLYLQMNSLRAEDTAVYYCNARNLWGQGTLVTVSSDKTHTCPPCPAPESTRGPSVFLFPPKPKDTLMISRTPEVTCVVVDVSHEDPEVKFNWYVDGVEVHNAKTKPREEQYNSTYRVVSVLTVLHQDWLNGKEYKCKVSNKALPAPIEKTISKAKGQPREPQVCTLPPSRDELTKNQVSLSCAVKGFYPSDIAVEWESNGQPENNYKTTPPVLDSDGSFFLVSKLTVDKSRWQQGNVFSCSVMHEALHNHYTQKSLSLSPGK
heavy: EVQLVESGGGLVQPGRSLRLSCAASGFTFNTYAMNWVRQAPGKGLEWVARIRSKYNNYATYYADSVKDRFTISRDDSKSIAYLQMNSLKTEDTAVYYCVRHGNFGNSYVSWFAYWGQGTLVTVSSASTKGPSVFPLAPSSKSTSGGTAALGCLVKDYFPEPVTVSWNSGALTSGVHTFPAVLQSSGLYSLSSVVTVPSSSLGTQTYICNVNHKPSNTKVDKKVEPKSCDKTHTCPPCPAPESTRGPSVFLFPPKPKDTLMISRTPEVTCVVVDVSHEDPEVKFNWYVDGVEVHNAKTKPREEQYNSTYRVVSVLTVLHQDWLNGKEYKCKVSNKALPAPIEKTISKAKGQPREPQVYTLPPCRDELTKNQVSLWCLVKGFYPSDIAVEWESNGQPENNYKTTPPVLDSDGSFFLYSKLTVDKSRWQQGNVFSCSVMHEALHNHYTQKSLSLSPGK
light: B1 light
notes: also called BsAb-05
Turning to B2, the EC50 worked out at 0.913 nM in [7] and 0.109 nM in test [13].

B3: BsAb-8 (bispecific antibody, human IgG1, lambda)
chain: EVQLVESGGGLVQPGGSLRLSCAASGRSFSSFQMGWFRQAPGKEREFVAASGWSGGPTYYWDSVIGRFTISTDNSKNTLYLQMNSLRAEDTAVYYCYEDRVLSGRPVRYWGQGTLVTVSSGGGGSGGGGSGGGGSEVQLVESGGGLVQPGGSLRLSCAASGRSFSSFQMGWFRQAPGKEREFVAASGWSGGPTYYWDSVIGRFTISTDNSKNTLYLQMNSLRAEDTAVYYCYEDRVLSGRPVRYWGQGTLVTVSSDKTHTCPPCPAPESTRGPSVFLFPPKPKDTLMISRTPEVTCVVVDVSHEDPEVKFNWYVDGVEVHNAKTKPREEQYNSTYRVVSVLTVLHQDWLNGKEYKCKVSNKALPAPIEKTISKAKGQPREPQVCTLPPSRDELTKNQVSLSCAVKGFYPSDIAVEWESNGQPENNYKTTPPVLDSDGSFFLVSKLTVDKSRWQQGNVFSCSVMHEALHNHYTQKSLSLSPGK
heavy: B2 heavy
light: B1 light
notes: also called BsAb-08
On to B3, for which the concentration for a half-maximal effect (EC50) in test [7] came out at 0.838 nM; in test [13], 0.28 nM.

B4: BsAb-4 (bispecific antibody, human IgG1, lambda)
chain: EVQLVESGGGLVQPGGSLRLSCAASGRSFSSFQMGWFRQAPGKEREFVAASGWSGGPTYYWDSVIGRFTISTDNSKNTLYLQMNSLRAEDTAVYYCYEDRVLSGRPVRYWGQGTLVTVSSDKTHTCPPCPAPESTRGPSVFLFPPKPKDTLMISRTPEVTCVVVDVSHEDPEVKFNWYVDGVEVHNAKTKPREEQYNSTYRVVSVLTVLHQDWLNGKEYKCKVSNKALPAPIEKTISKAKGQPREPQVCTLPPSRDELTKNQVSLSCAVKGFYPSDIAVEWESNGQPENNYKTTPPVLDSDGSFFLVSKLTVDKSRWQQGNVFSCSVMHEALHNHYTQKSLSLSPGK
heavy: B2 heavy
light: B1 light
notes: also called BsAb-04
With B4, the concentration for a half-maximal effect (EC50) in [7] is 0.629 nM; in [13], 0.373 nM.
